From paper PMC10127586

Assays:
Assay in all cases: SPR
[1] = biological target: pPGT121
[2] = biological target: pPGT121-LS
[3] = biological target: pPGT121-YTE
[4] = biological target: pVRC07-523-LS

Measured: Kd

Rhesus macaque FcγR IIIa-1 (from UniProt A3RFZ7 21-254) (receptor)
> 20 µM: all assays above

Rhesus macaque FcγR IIIa-3 (from UniProt A3RFZ7 21-254) (receptor)
> 20 µM: all assays above

Rhesus macaque FcγR IIa-2 (receptor)
> 20 µM: all assays above

Rhesus macaque FcγR IIa-4 (receptor)
> 20 µM: all assays above

Rhesus macaque FcγR IIb-1 (receptor)
> 20 µM: all assays above
